Patent US20200249244A1 (PROTHENA BIOSCIENCES, published 2020)
Several values for one entry are separate records, joined by “and”; a condition that tells them apart may be missing. Equal values may be shown once.

Key:
[1] = target: misfolded TTR in plasma of ATTR patients (human, UniProt P02766 21-147); assay: MSD ECL competition: m14G8 spiked into plasma of 12 h-ATTR patients, free mis-TTR captured by biotinylated 9D5 (competitor), Dako polyclonal reporter
[2] = target: Cynomolgus TTR denatured in 6 M Guanidine Hydrochloride (Cynomolgus, UniProt Q8HXW1 21-147); assay: SPR Biacore T200, antibody captured by anti-mouse antibody, Gu-cTTR 1-1000 nM as analyte, 1:1 fit
Procedure: (§1) Anti-Mouse antibody was immobilized on sensor chip CM3 (GE Healthcare Life Sciences) via amine coupling, and murine antibodies (ligand) were captured to a level to ensure a maximum binding of analyte of 50 RU (approximately 250RU of ligand binding). Various concentrations of Gu-TTR (ranging from 0.4 nM to 100 nM) were passed over the captured ligand at 50 μL/min in running buffer (HBS+0.05% P-20, 1 mg/mL BSA, 50 mM Gu-HCl) for 300 s association time and 900 s dissociation time. Regeneration of the chip surface was accomplished by 2 short injections of 10 mM Glycine-HCl at pH 1.7. Concentrations of Gu-cTTR used ranged from 1-1000 nM, while concentrations of Human TTR tetramer ranged from 10 nM to 10,000 nM. Data was blank subtracted to both a sensor not containing ligand and 0 nM analyte concentration. Analysis was performed using a global 1:1 fit with Biacore Evaluation software (v3.0) with bulk refractive index set to zero RU.

[3] = target: T1, recombinant human TTR, denatured (misfolded) (human, UniProt P02766 21-147); assay: SPR Biacore T200, antibody captured by anti-mouse antibody, Gu-hTTR 0.4-100 nM as analyte, 1:1 fit
Procedure: (§2) Anti-Human antibody was immobilized on flow cells 1 and 2, Anti-Mouse antibody was immobilized on flow cells 3 and 4 on sensor chip CM3 (GE Healthcare Life Sciences) via amine coupling, chimeric and murine 18C5 antibodies (ligand) were captured to a level to ensure a maximum binding of analyte of 50 RU (approximately 250RU of ligand binding). Various concentrations of Gu-TTR (ranging from 0.4 nM to 100 nM) were passed over the captured ligand at 50 μL/min in running buffer (HBS+0.05% P-20, 1 mg/mL BSA, 50 mM Gu-HCl) for 300s association time and 900s dissociation time. Regeneration of the chip surface was accomplished by 2 short injections of 3M Magnesium Chloride or 2 short injections of 10 mM Glycine-HCl at pH 1.7. Data was blank subtracted to both a sensor not containing ligand and 0 nM analyte concentration. Analysis was performed using a global 1:1 fit with Biacore Evaluation software (v3.0) with bulk refractive index set to zero RU.

[4] = target: native tetrameric human TTR (human, UniProt P02766 21-147); assay: SPR Biacore T200, antibody captured by anti-mouse antibody, human TTR tetramer 10-10,000 nM as analyte, 1:1 fit
Procedure: as §1

[5] = target: T1, recombinant human TTR, denatured …; assay: SPR Biacore T200, antibody captured by anti-mouse antibody, Gu-hTTR as analyte, 1:1 fit
Procedure: as §1

[6] = target: T1, recombinant human TTR, denatured …; assay: SPR Biacore T200, antibody captured by anti-human antibody, Gu-hTTR 0.4-100 nM as analyte, 1:1 fit
Procedure: as §2

B1: Mouse 14G8 (antibody, V domains shown)
VH: EVKLVESGGGLVQPGGSLKLSCAASGFTFSSYTMSWVRQTPEKRLELVAEINNSGDTTYYPDTVKGRFTISRDNAKNTLYLQMSSLKSEDTAMYYCARHYYYGGGYGGWFFDVWGTGTTVTVSS
VL: DIVMTQAAPSVPVTPGESVSISCRSNKSLLHSNGNTYLYWFLQRPGQSPQLLIYRVSNLASGVPDRFSGSGSGTAFTLRISRVEAEDVGVYYCMQHLEYPLTFGAGTKLELKR
EC50 [1]: 343 nM and ~50 µg/mL

B2: mouse 18C5 antibody (antibody, V domains shown)
VH: EVKLLESGGGLVQPGGSLNLSCVASGFDFSRFWMSWARQAPGRGQEWIGEINPGSSTINYTPSLKDKFIISRDNAKNTLFLQMSKVRSEDSALYYCARLGYGNYGWALDYWGQGTSVTVSS
VL: DVLMTQTPLSLPVSLGDQASISCRSSQSIVDSNGNTYLEWYLQKPGQSPKLLIYKVSNRFSGVPDRFSGSGSGTDFTLKISRVEAEDLGIYYCFQGSHVPLTFGAGTKLELK
notes: Used unlabelled (Biacore, Western blot), biotinylated (capture) or SULFO-TAG labelled (reporter) in the MSD assays; also called murine 18C5; m18C5
koff [2]: 0.00092 s⁻¹ | kon [2]: 100000 M⁻¹ s⁻¹ | Kd [3]: 2.2 nM | koff [3]: 0.00021 s⁻¹ | kon [3]: 99000 M⁻¹ s⁻¹ | koff [4]: 0.00022 s⁻¹ | kon [4]: 2200 M⁻¹ s⁻¹ | Kd [5]: 5.9 nM | koff [5]: 0.00062 s⁻¹ | kon [5]: 110000 M⁻¹ s⁻¹

B3: chimeric 18C5 antibody (antibody, human IgG1, kappa, V domains shown)
VH: EVKLLESGGGLVQPGGSLNLSCVASGFDFSRFWMSWARQAPGRGQEWIGEINPGSSTINYTPSLKDKFIISRDNAKNTLFLQMSKVRSEDSALYYCARLGYGNYGWALDYWGQGTSVTVSS
VL: DVLMTQTPLSLPVSLGDQASISCRSSQSIVDSNGNTYLEWYLQKPGQSPKLLIYKVSNRFSGVPDRFSGSGSGTDFTLKISRVEAEDLGIYYCFQGSHVPLTFGAGTKLELKR
notes: Mouse 18C5 variable regions on human IgG1/kappa constant regions, expressed in CHO cells
Kd [6]: 1.8 nM | koff [6]: 0.00016 s⁻¹ | kon [6]: 130000 M⁻¹ s⁻¹
